Experimental data published in patent US20250066478A1 (IBIO, published 2025).

Target: T1, MUC16 membrane-proximal region (UniProt Q8WXI7 13810-14451)
T1 construct: domain: membrane-proximal region
T1 sequence: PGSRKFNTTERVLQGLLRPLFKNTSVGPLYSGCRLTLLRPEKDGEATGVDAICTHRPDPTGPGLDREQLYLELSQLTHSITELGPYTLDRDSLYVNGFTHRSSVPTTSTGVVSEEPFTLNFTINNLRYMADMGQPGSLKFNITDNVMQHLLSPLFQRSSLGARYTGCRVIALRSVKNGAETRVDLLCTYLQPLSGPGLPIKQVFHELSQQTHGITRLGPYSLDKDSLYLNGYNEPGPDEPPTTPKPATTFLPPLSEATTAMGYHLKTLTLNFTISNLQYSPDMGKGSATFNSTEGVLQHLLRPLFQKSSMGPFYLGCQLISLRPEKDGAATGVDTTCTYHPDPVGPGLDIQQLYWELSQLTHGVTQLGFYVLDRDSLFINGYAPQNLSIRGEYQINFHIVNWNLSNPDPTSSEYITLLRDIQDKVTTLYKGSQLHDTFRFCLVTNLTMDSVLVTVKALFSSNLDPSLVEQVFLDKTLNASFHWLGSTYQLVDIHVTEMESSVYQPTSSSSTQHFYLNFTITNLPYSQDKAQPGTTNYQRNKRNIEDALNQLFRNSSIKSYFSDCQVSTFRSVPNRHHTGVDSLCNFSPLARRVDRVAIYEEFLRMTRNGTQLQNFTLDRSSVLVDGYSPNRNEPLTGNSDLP
Assay: FIG. 7A; method not named in the legend (Octet BLI or flow cytometry per the methods)

binding result: no binding
B1: 21G6 long linker mask on VH domain (antibody)
VH: NFTLDRSSVLVDGYSPNRNEPLTGNSDLPGGGGSSGGPGPAGMKGLPGSQVQLQESGPGLVKPSQTLSLTCTVSGYSITSDYAWNWIRQPPGKGLEWIGYISYSGSTIYNPSLKSRISISVDTSKNQFSLKLNSVTAADTAVYYCATLGLDYWGQGTLVTVSS
VL: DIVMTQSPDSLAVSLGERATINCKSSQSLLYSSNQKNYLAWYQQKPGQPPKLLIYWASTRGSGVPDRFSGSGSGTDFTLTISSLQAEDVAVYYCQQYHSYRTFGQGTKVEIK
notes: the methods give the format as IgG or scFv
